# Measurements published in the RNAGym collection of RNA variant scans (doi:10.1021/acssynbio.7b00057).
# B1: Pistol ribozyme (parent)
# chain: GGGUCGUUGUUCCAUAAUCGCGUGGAUAUGGCACGCAAGUUUCUACCGGGCACCGUAAAUGUCCGACUGGAGCCGUUCGGGCGGCUAUAAACAGACCUCAGGCCCGAAGCGUGGCGGCACCUGCCGCCGGUGGUAAAAAAGAUCGGAAGAGCACACGUCU
# Variants of: B1
# Assay: aptazyme ON/OFF ratio, guanine; higher = stronger switching; co-transcriptional cleavage with and without guanine
row,Variant,aptazyme ON/OFF ratio
1,G9C U11G C12G C13U,1.05
2,U7A U8A G9A U10A C12G,1.24
3,U8C U10G U11C C12A C13G,1.11
4,U8A G9U U10A C12U,1.4
5,U8A G9C U10C U11A C12A C13U,1.13
6,U7A U8G G9U U10A U11C C12U C13A,1.21
7,U7A U8A G9A U11A C13A,1.2
8,U7A U8A G9A U10G U11A C13A,1.01
9,U7G U8A G9U C12A C13A,1.1
10,U7G U8A U10A U11C C12U C13A,1.18
11,U7A U8A G9U U11G C12U C13U,1.55
12,U8G U10G U11A C12G C13G,1.17
13,U10G C12U C13U,1.15
14,U7C G9C U10C U11A,0.975
15,U7C U8C G9C U10G U11A C12G C13U,1.08
16,U7C U8C G9U U10G U11A C12A C13A,1.2
17,U7C U8G U10A U11A C13U,1.29
18,U7C U8G G9U U11A C12U,1.39
19,U7C G9C U10G C12A C13A,1.15
20,U8C G9C U10C U11G C12A C13G,1.16
21,U8G G9C U10G C12U C13U,1.26
22,G9C U10G U11A C12A C13U,1.52
23,U7A G9A U10G U11A C12A C13A,1.11
24,U7G U8G G9U C13G,1.26

row,Variant,aptazyme ON/OFF ratio
1,U7C U8C G9U C13G,1.03
2,U7C U8A U10A C12G,1.19
3,U8G U10A C12U C13U,1.3
4,U7A G9C U10C U11G C12A,1.04
5,U7C G9A U11A C12A C13A,1.24
6,U7C U8C G9C U11C C12G C13G,1.2
7,U11G C12G C13U,1.32
8,G9A U11C C12G C13G,1.15
9,U10G U11A C12A C13U,1.27
10,U7G U8A G9U U10G U11G C12G C13U,1.05
11,U7G U8G G9A U10G U11G C12A C13G,1.15
12,U7A G9C U10C U11C C12A C13A,1.02
13,U7G U8A G9U U10G U11A C12U C13U,1.02
14,U8C G9A U10G U11A C12U C13U,1.17
15,U7G U8C G9C U10C U11G C12U C13A,1.08
16,U7C U8C G9A U10C U11G C12A C13A,1.28
17,U7A G9U U10G C12G C13G,1.25
18,U7G U8A U10G U11C C12U,1.27
19,U8A G9C U10C U11A C12G C13G,1.12
20,U8A G9C U10G U11G C12U C13U,1.11
21,U8A G9C U10C U11C C12G,1.01
22,U7A U8C U11G C12A C13A,1.07
23,U7G U8C G9U U10A C12G,1.77
24,U8A G9A U11G C13G,1.09

row,Variant,aptazyme ON/OFF ratio
1,U7G G9C U10G C12G C13G,1.18
2,U7G U8C G9C U10C C12G,1.1
3,U7C U8A G9A U11G C12A,1.07
4,U10A U11G C12U C13A,1.62
5,U7G G9U U10A U11C C12G,1.5
6,U8C G9U U11A C12U C13U,1.17
7,U7C U8C G9U U10G U11A C12G C13U,1.08
8,U7G U8C U10G U11A C12A,1.15
9,U8A G9C U11G C12G,1.16
10,U7C U8C G9U U10C U11G C12U C13G,1.19
11,U7A U10G U11C C12A C13A,1.33
12,U7A U8C G9U U10G U11G C12G C13U,1.29
13,U7A U8G G9U U10G U11G C12U C13U,1.21
14,U8G G9A,1.64
15,U7A U8A G9A U10G U11C C12G,1.13
16,U7C G9A U10C U11A C12A,1.27
17,U7A U8A G9U U10C U11G C12A,1.04
18,U7C U8G U10G C12U,1.24
19,U7C G9A U10G C13A,1.19
20,U7C U8G G9C U10C C12A,1.07
21,U8C G9U U10G U11C C12G,1.19
22,U7A U8G U10A U11C C13A,1.18
23,U7A U8A G9U U10G U11G C12G C13A,1.21
24,C12G C13G,1.33

row,Variant,aptazyme ON/OFF ratio
1,U7G U8G G9U U10C U11C C12A,1.46
2,U8C G9U U10A U11C,1.06
3,U8G G9U U10C U11C C12A,1.04
4,U7A U8G G9C U10A U11C,1.04
5,U7A U8A G9C U10A U11A C12G,1.27
6,U7A U8A G9C U10G U11G C12G,1.56
7,U7C G9C U10G U11G C13A,1.1
8,U7G U8G G9U U10G U11C C12U C13G,1.19
9,U7A U8A C13G,1.22
10,G9A U10A U11G C13A,1.34
11,U7C U8C U11C C12A C13U,1.28
12,U7A U8A G9A U11G C13A,1.15
13,U7C U11A C12G C13G,1.16
14,U7A U8C G9U,1.94
15,G9A C12G C13A,1.3
16,U8G G9U U10G U11C C12U C13U,1.03
17,U7C U8A U10G U11G C13U,1.32
18,U7C U8C U10A U11C C12A C13G,1.16
19,U8G G9A C12G C13A,1.37
20,U7G U8C U11A C12G C13U,1.12
21,U8G G9C U11A C12A,1.11
22,U7A U8C G9C U10A U11A C13U,1.13
23,U8A G9U U11A C12U C13A,1.52
24,U7C U8G G9A U10C U11G C12A C13U,1.14

row,Variant,aptazyme ON/OFF ratio
1,U7C U8C U11C C12A,1.33
2,U7C G9U U10A U11C C12G C13A,1.16
3,U7A G9A U10C U11G C12A C13A,1.18
4,U7A G9C U10G U11G,1.06
5,U7C U10C C12G C13A,1.23
6,U8G G9C U11A C12U C13G,1.06
7,U7C U8G U10G U11A C12A C13G,1.13
8,U7C U8C G9A C12G C13A,1.25
9,U7C U8A G9A U10A U11A C12G C13G,1.28
10,U7C U8C G9U U10A U11G,1.34
11,U8A G9U U10G C13G,1.13
12,U8C G9U U10G U11C C12U C13U,1.19
13,U7A U8C G9U U10G U11A C12G,1.21
14,U7C U8A C12A C13U,1.39
15,U10G U11A C12A C13G,1.06
16,U7G U8C U10C U11A C12A,1.44
17,U7G U8A U11C C12A C13G,1.36
18,U8A G9A U11C C13A,1.04
19,U8A U11C C12G C13G,1.32
20,U8G G9C U10A,1.13
21,U7G G9U U10G C12A C13G,1.12
22,U7A U8A G9C U10G U11G C12A C13U,1.41
23,U7G U8G G9C U10C U11C C12U C13G,1.23
24,U7A U8C G9U U10C U11G C12A,1.04

row,Variant,aptazyme ON/OFF ratio
1,U7A U10A U11A C12A,1.11
2,U7G U8C G9A U11C C12U,1.65
3,U8A G9U U10A U11C C12U C13A,1.25
4,G9C U10G C13G,1.1
5,U7A U8A G9U U10A C12G C13U,1.3
6,U7G U8A G9A U10A C13U,1.11
7,U7A U8A G9C U10G C13U,1.56
8,U8G G9A U11G C12G C13A,1.27
9,U7C U8C G9A U10C U11A C12U,1.22
10,U8A U10G C12A C13A,1.23
11,U8C U10C U11A C12A,1.34
12,U7C U8C G9U U11A C12G C13A,1.07
13,U7A U8C G9C U11A C12A,1.08
14,U7A U8C G9A C12G C13G,1.12
15,U7A U8A G9A U10A U11A C12U C13G,1.23
16,U7C C12G,1.85
17,G9C U10C C12G C13U,1.09
18,G9U U10C U11C C12G C13U,1.1
19,U7C U8G U10A U11A C12U C13U,1.16
20,U7A U8C G9C U10A U11A,1.07
21,U8G G9U U10A U11A C12G C13U,1.22
22,U7C U8G G9A U10G U11C C13A,1.11
23,U7G U8C G9C U10A U11C C13A,1.41
24,U8G G9C U10C C12U,1.03

row,Variant,aptazyme ON/OFF ratio
1,U7A U10A U11G C12U C13U,1.35
2,U7G U8C G9A U11A C12G C13G,1.06
3,U7A U8G U10C C12U C13U,1.51
4,U7A U8A G9C U10G C12U C13U,1.32
5,U8A U11A C12G,1.2
6,U10A C13A,1.11
7,U8G G9A U10A U11G C13G,1.07
8,U7C U8G U10C U11G C12U C13A,1.24
9,U7A U8G G9U U10C C12A,1.41
10,U7C U8G G9U U10G U11C C12A C13G,1.06
11,U8G U11A C13G,1.11
12,U7C U8G U10C U11C C12U C13U,1.1
13,U7G G9U U10C U11A C13U,1.36
14,U7G G9C U11C C13U,1.39
15,U7C U8G G9C U10C C13G,1.08
16,U7A G9C C12A C13G,1.04
17,U7C G9C U10A U11A C12A C13A,1.09
18,U7G U8G G9U U10A U11A C13U,1.28
19,U7G U8A G9C U10C U11C C12A,1.04
20,G9C U11C C12G C13G,1.09
21,G9C U10A U11A C12A C13U,1.27
22,U7A U8C G9U U10G U11G C12G C13A,1.15
23,U7C U8G G9U U10G U11C C12U C13U,1.04
